The values that follow come from US20100291638.

The series concerns T1, DNA polymerase clone 1773 (uncultured hot spring virus (Great Boiling Spring)).
T1 sequence: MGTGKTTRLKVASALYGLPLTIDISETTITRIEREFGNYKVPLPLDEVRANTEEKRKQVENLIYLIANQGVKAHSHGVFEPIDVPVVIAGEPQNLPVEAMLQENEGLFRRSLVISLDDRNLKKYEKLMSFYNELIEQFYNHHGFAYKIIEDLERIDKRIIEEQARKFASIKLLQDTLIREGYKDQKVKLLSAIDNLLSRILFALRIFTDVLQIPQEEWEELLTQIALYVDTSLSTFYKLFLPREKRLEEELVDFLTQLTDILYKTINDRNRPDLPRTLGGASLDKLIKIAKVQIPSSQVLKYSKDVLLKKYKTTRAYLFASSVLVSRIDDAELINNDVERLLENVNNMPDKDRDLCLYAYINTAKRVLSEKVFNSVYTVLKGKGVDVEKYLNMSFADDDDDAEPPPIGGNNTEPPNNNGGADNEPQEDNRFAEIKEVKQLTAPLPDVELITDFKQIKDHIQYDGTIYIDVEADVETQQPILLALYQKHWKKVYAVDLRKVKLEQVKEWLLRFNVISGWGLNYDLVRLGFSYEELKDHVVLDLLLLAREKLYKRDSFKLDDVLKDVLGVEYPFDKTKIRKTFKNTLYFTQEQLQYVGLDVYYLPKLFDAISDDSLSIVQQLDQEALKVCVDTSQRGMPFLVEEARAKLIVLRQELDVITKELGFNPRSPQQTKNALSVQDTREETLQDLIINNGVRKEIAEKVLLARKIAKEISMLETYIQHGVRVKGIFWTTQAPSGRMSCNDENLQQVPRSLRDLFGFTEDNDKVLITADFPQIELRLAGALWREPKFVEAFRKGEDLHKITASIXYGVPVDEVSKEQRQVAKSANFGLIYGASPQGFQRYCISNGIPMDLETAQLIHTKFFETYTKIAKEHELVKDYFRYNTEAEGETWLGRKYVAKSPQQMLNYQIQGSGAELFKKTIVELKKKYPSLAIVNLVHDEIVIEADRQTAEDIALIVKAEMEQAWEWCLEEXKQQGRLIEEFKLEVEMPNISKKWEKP
To be noted: dNTP incorporation; background <500.

On to activated calf thymus DNA, for which the activity worked out at 124000 cpm.
